In IntAct's records for PubMed 14871493:

Molecular target: narb_syne7 narB (UniProt P39458)
Sequence (P39458 whole entry): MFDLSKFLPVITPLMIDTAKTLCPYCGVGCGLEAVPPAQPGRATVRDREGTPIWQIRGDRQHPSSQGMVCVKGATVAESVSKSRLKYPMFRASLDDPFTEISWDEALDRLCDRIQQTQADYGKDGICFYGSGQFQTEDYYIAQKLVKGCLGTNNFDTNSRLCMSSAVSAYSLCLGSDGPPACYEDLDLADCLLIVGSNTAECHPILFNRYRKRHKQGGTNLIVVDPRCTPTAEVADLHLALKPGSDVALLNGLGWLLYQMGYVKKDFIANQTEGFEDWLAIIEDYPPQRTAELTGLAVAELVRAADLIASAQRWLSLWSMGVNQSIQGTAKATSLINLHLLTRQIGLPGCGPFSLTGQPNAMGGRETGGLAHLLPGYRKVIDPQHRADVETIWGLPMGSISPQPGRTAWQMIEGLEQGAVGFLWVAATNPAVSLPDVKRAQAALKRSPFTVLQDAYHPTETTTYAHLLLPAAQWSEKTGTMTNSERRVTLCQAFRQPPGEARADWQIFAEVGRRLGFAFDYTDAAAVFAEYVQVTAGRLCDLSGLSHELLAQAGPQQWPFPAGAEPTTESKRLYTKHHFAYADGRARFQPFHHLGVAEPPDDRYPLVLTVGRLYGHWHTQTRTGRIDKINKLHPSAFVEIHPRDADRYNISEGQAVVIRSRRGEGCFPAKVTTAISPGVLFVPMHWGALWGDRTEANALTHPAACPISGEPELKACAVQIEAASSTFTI

Ferredoxin-1 (Anabaena sp. (strain PCC 7119)), P0A3C8 E95K;E96K, sequence (P0A3C8 whole entry E95K/E96K): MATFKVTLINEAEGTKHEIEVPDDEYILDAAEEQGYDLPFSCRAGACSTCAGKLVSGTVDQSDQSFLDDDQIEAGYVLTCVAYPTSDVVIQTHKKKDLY
Ferredoxin-1 (Anabaena sp. (strain PCC 7119)), P0A3C8 E95K, sequence (P0A3C8 whole entry E95K): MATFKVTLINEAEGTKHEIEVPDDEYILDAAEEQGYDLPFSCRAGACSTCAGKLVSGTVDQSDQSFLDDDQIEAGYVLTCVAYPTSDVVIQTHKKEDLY
Ferredoxin-1 (Anabaena sp. (strain PCC 7119)), P0A3C8 E96K, sequence (P0A3C8 whole entry E96K): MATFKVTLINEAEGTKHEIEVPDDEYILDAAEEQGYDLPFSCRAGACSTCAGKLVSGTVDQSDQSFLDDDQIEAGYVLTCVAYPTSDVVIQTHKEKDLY

effect of a mutation on the interaction | Substance
decreasing interaction | Ferredoxin-1 (Anabaena sp. (strain PCC 7119)), P0A3C8 E95K;E96K
decreasing interaction | Ferredoxin-1 (Anabaena sp. (strain PCC 7119)), P0A3C8 E96K
decreasing interaction | Ferredoxin-1 (Anabaena sp. (strain PCC 7119)), P0A3C8 E95K
